Data from patent publication US20180155451A1 (published 2018).

T1: FcγRIIb (human, UniProt P31994 43-217)
T1 construct: extracellular domain; Soluble extracellular domain with C-terminal His tag, used as analyte in Biacore; also called FcgRIIb; 2b; not shown: His tag attached to the C terminus
T1 sequence (looked up): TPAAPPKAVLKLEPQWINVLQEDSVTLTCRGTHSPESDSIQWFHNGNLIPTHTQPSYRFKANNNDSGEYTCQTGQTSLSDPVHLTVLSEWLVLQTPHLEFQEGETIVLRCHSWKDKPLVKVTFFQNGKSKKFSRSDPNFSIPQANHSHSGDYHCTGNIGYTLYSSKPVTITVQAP

T2: FcγRIIa H (FcγRIIa, type H allotype, His at position 131), extracellular domain with C-terminal His tag (human, UniProt P12318 34-217)
T2 construct: extracellular domain; Soluble receptor expressed in FreeStyle293 cells; analyte in Biacore; also called FcgRIIa H; 2aH; not shown: C-terminal His tag
T2 sequence (looked up): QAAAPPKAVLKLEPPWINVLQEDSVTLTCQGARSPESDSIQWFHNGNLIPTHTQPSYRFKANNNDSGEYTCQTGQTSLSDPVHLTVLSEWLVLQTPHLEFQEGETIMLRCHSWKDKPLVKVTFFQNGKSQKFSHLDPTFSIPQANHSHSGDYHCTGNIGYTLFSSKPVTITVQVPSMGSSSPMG

T3: FcγRIIb, extracellular domain with C-terminal His tag (human, UniProt P31994 43-217)
T3 construct: extracellular domain; Soluble receptor expressed in FreeStyle293 cells; analyte in Biacore; also called FcgRIIb; 2b; not shown: C-terminal His tag
T3 sequence (looked up): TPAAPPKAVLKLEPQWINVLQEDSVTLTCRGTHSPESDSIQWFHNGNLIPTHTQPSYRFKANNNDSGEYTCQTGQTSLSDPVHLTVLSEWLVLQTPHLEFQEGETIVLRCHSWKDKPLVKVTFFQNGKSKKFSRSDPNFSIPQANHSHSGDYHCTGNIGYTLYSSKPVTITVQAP


Experiments:
FcγRIa = target: T4, FcγRIa (human, UniProt P12314 16-292); assay: SPR (Biacore), antibody captured on antigen peptide, FcγR as analyte; relative to GpH7-A5/GpH7-B3/GpL16-k0 = 100
T4 construct: extracellular domain; Soluble extracellular domain with C-terminal His tag, used as analyte in Biacore; also called FcgRI; 1a; not shown: His tag attached to the C terminus

FcγRIIb = target: T1, FcγRIIb; assay: as above
[1] = target: T2, FcγRIIa H (FcγRIIa, type H allotype, …); assay: ratio of He/Con_2aH to He/Con_2b (FcγRIIa H over FcγRIIb), SPR
[2] = target: T3, FcγRIIb, extracellular domain with …; assay: SPR (Biacore), captured antibody, FcγR as analyte
[3] = target: T2, FcγRIIa H (FcγRIIa, type H allotype, …); assay: SPR (Biacore), captured antibody, FcγR as analyte

T4 sequence (P12314 16-292): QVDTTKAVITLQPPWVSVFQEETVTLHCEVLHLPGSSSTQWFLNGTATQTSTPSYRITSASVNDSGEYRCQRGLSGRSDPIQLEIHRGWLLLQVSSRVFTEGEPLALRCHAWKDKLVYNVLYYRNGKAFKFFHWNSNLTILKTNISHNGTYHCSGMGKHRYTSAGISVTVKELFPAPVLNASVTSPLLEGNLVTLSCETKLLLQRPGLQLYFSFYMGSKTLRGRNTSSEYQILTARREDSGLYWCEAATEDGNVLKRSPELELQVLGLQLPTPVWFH

Binder	He/Con_1a (FcγRIa)	He/Con_2b (FcγRIIb)	He_2aH/2b (IIaH/IIb) [1]	He/Con_2b [2]	He/Con_2aH [3]
GpH7-A5/GpH7-B3 variant G237_13S/GpL16-k0 (antibody, human IgG1, kappa, Heterodimerized IgG1; mutation in the GpH7-B3 H chain only; also called He Ab) heavy 1: not shown heavy 2: not shown light: DIVMTQSPLSLPVTPGEPASISCQASESLVHSNRNTYLHWYLQKPGQSPQLLIYKVSNRFSGVPDRFSGSGSGTDFTLKISRVEAEDVGVYYCSQNTHVPPTFGQGTKVEIERTVAAPSVFIFPPSDEQLKSGTASVVCLLNNFYPREAKVQWKVDNALQSGNSQESVTEQDSKDSTYSLSSTLTLSKADYEKHKVYACEVTHQGLSSPVTKSFNRGEC	92.2 % of control	111 % of control	–	–	–
GpH7-A5/GpH7-B3 variant A327_01G/GpL16-k0 (antibody, human IgG1, kappa, Heterodimerized IgG1; mutation in the GpH7-B3 H chain only; also called He Ab) heavy 1: not shown heavy 2: not shown light: DIVMTQSPLSLPVTPGEPASISCQASESLVHSNRNTYLHWYLQKPGQSPQLLIYKVSNRFSGVPDRFSGSGSGTDFTLKISRVEAEDVGVYYCSQNTHVPPTFGQGTKVEIERTVAAPSVFIFPPSDEQLKSGTASVVCLLNNFYPREAKVQWKVDNALQSGNSQESVTEQDSKDSTYSLSSTLTLSKADYEKHKVYACEVTHQGLSSPVTKSFNRGEC	99 % of control	116 % of control	–	–	–
GpH7-A5/GpH7-B3 variant N325_03V/GpL16-k0 (antibody, human IgG1, kappa, Heterodimerized IgG1; mutation in the GpH7-B3 H chain only; also called He Ab) heavy 1: not shown heavy 2: not shown light: DIVMTQSPLSLPVTPGEPASISCQASESLVHSNRNTYLHWYLQKPGQSPQLLIYKVSNRFSGVPDRFSGSGSGTDFTLKISRVEAEDVGVYYCSQNTHVPPTFGQGTKVEIERTVAAPSVFIFPPSDEQLKSGTASVVCLLNNFYPREAKVQWKVDNALQSGNSQESVTEQDSKDSTYSLSSTLTLSKADYEKHKVYACEVTHQGLSSPVTKSFNRGEC	95.6 % of control	111 % of control	–	–	–
GpH7-A5/GpH7-B3 variant Y300_02A/GpL16-k0 (antibody, human IgG1, kappa, Heterodimerized IgG1; mutation only in the GpH7-B3 chain; also called He Ab) heavy 1: not shown heavy 2: not shown light: DIVMTQSPLSLPVTPGEPASISCQASESLVHSNRNTYLHWYLQKPGQSPQLLIYKVSNRFSGVPDRFSGSGSGTDFTLKISRVEAEDVGVYYCSQNTHVPPTFGQGTKVEIERTVAAPSVFIFPPSDEQLKSGTASVVCLLNNFYPREAKVQWKVDNALQSGNSQESVTEQDSKDSTYSLSSTLTLSKADYEKHKVYACEVTHQGLSSPVTKSFNRGEC	–	–	1.35	69.2 relative, GpH7-A5/GpH7-B3/GpL16-k0 = 100	93.5 relative, GpH7-A5/GpH7-B3/GpL16-k0 = 100
GpH7-A5/GpH7-B3 variant L235_04F/GpL16-k0 (antibody, human IgG1, kappa, Heterodimerized IgG1; mutation in the GpH7-B3 H chain only; also called He Ab) heavy 1: not shown heavy 2: not shown light: DIVMTQSPLSLPVTPGEPASISCQASESLVHSNRNTYLHWYLQKPGQSPQLLIYKVSNRFSGVPDRFSGSGSGTDFTLKISRVEAEDVGVYYCSQNTHVPPTFGQGTKVEIERTVAAPSVFIFPPSDEQLKSGTASVVCLLNNFYPREAKVQWKVDNALQSGNSQESVTEQDSKDSTYSLSSTLTLSKADYEKHKVYACEVTHQGLSSPVTKSFNRGEC	97.1 % of control	118 % of control	–	–	–
GpH7-A5/GpH7-B3 variant N325_07I/GpL16-k0 (antibody, human IgG1, kappa, Heterodimerized IgG1; mutation in the GpH7-B3 H chain only; also called He Ab) heavy 1: not shown heavy 2: not shown light: DIVMTQSPLSLPVTPGEPASISCQASESLVHSNRNTYLHWYLQKPGQSPQLLIYKVSNRFSGVPDRFSGSGSGTDFTLKISRVEAEDVGVYYCSQNTHVPPTFGQGTKVEIERTVAAPSVFIFPPSDEQLKSGTASVVCLLNNFYPREAKVQWKVDNALQSGNSQESVTEQDSKDSTYSLSSTLTLSKADYEKHKVYACEVTHQGLSSPVTKSFNRGEC	94.8 % of control	171 % of control	–	–	–

Next, values leading:

He/Con_1a (FcγRIa)	He/Con_2b (FcγRIIb)	He_2aH/2b (IIaH/IIb) [1]	He/Con_2b [2]	He/Con_2aH [3]	Binder
97.6 % of control	217 % of control	–	–	–	GpH7-A5/GpH7-B3 variant N325_06M/GpL16-k0 (antibody, human IgG1, kappa, Heterodimerized IgG1; mutation in the GpH7-B3 H chain only; also called He Ab) heavy 1: not shown heavy 2: not shown light: DIVMTQSPLSLPVTPGEPASISCQASESLVHSNRNTYLHWYLQKPGQSPQLLIYKVSNRFSGVPDRFSGSGSGTDFTLKISRVEAEDVGVYYCSQNTHVPPTFGQGTKVEIERTVAAPSVFIFPPSDEQLKSGTASVVCLLNNFYPREAKVQWKVDNALQSGNSQESVTEQDSKDSTYSLSSTLTLSKADYEKHKVYACEVTHQGLSSPVTKSFNRGEC
–	–	1.45	74.5 relative, GpH7-A5/GpH7-B3/GpL16-k0 = 100	108 relative, GpH7-A5/GpH7-B3/GpL16-k0 = 100	GpH7-A5/GpH7-B3 variant Y300_07I/GpL16-k0 (antibody, human IgG1, kappa, Heterodimerized IgG1; mutation only in the GpH7-B3 chain; also called He Ab) heavy 1: not shown heavy 2: not shown light: DIVMTQSPLSLPVTPGEPASISCQASESLVHSNRNTYLHWYLQKPGQSPQLLIYKVSNRFSGVPDRFSGSGSGTDFTLKISRVEAEDVGVYYCSQNTHVPPTFGQGTKVEIERTVAAPSVFIFPPSDEQLKSGTASVVCLLNNFYPREAKVQWKVDNALQSGNSQESVTEQDSKDSTYSLSSTLTLSKADYEKHKVYACEVTHQGLSSPVTKSFNRGEC
–	–	1.47	73.6 relative, GpH7-A5/GpH7-B3/GpL16-k0 = 100	108 relative, GpH7-A5/GpH7-B3/GpL16-k0 = 100	GpH7-A5/GpH7-B3 variant Y300_08L/GpL16-k0 (antibody, human IgG1, kappa, Heterodimerized IgG1; mutation only in the GpH7-B3 chain; also called He Ab) heavy 1: not shown heavy 2: not shown light: DIVMTQSPLSLPVTPGEPASISCQASESLVHSNRNTYLHWYLQKPGQSPQLLIYKVSNRFSGVPDRFSGSGSGTDFTLKISRVEAEDVGVYYCSQNTHVPPTFGQGTKVEIERTVAAPSVFIFPPSDEQLKSGTASVVCLLNNFYPREAKVQWKVDNALQSGNSQESVTEQDSKDSTYSLSSTLTLSKADYEKHKVYACEVTHQGLSSPVTKSFNRGEC
